Measured values published in patent US6013453, “Binding proteins for recognition of DNA” (Medical Research Council).

Target: anti-BCR-ABL 1A-2A-3B/VP16 fusion (synthetic construct)
Experiment: cell_activity; C3H10T1/2 cells
Excerpt: Having established DNA discrimination in vitro, the inventors wished to test whether the anti-BCR-ABL peptide was capable of site-specific DNA-binding in vivo. The peptide was fused to the VP16 activation domain from herpes simplex virus (Fields 1993 Methods 5, 116–124) and used in transient transfection assays (FIG. 9) to drive production of a CAT (chloramphenicol acetyl transferase) reporter gene from a binding site upstream of the TATA box (Gorman et al., Mol. Cell. Biol. 2, 1044–1051). In detail the experiment was performed thus: reporter plasmids pMCAT6BA, pMCAT6A, and pMCAT6B, were constructed by inserting 6 copies of the p190^BCR-ABL target site ([…], SEQ ID No. 121), the c-ABL second exon-intron junction sequence ([…], Seq ID No. 122), or the BCR first exon-intron junction sequence ([…] Seq ID No. 123) respectively, into pMCAT3 (Luscher et al., 1989 Genes Dev. 3, 1507–1517). The anti-BCR-ABL/VP16 expression vector was generated by inserting the in-frame fusion between the activation domain of herpes simplex virus VP16 (Fields 1993) and the Zn finger peptide in the pEF-BOS vector (Mizushima & Shigezaku 1990 Nucl. Acids Res. 18, 5322). C3H10T1/2 cells were transiently co-transfected with […] of reporter plasmid and […] of expression vector. […]

B1: p190 BCR-ABL site x6 reporter pMCAT6BA (dsDNA)
DNA 1: CGCAGAAGCC
DNA 2: GGCTTCTGCG
- activity: ~30 fold CAT activation
